Source: publication PMC5703881

What was measured:
Test in all cases: SPR
Conditions in all cases: Bead assay: PBS with 1% BSA, antibody 0.2 or 2 ug/ml, 1 h, 22 C; SPR conditions not in the material
[1] = tested on: 71F12GL-SFH (human)
[2] = tested on: 71F12GL-SF (human)
[3] = tested on: 72H11 IgG (human)
[4] = tested on: 71F12 GL (germline-reverted) (human)

## GGGGGGGGT [9-mer G8T]
[1]
  fold reduction in affinity (fold lower affinity than for GGGGGGTTT): 150

## GGGGGGTTT [9-mer G6T3]
[2]
  fold reduction in affinity (fold lower affinity than 71F12GL-SFH): 30

## TAATACGACTCACTATAGGG (double strand) [biotinylated 20-bp dsDNA (Fig. 4A)]
[3]
  Kd: 0.4 µM

## TTTTT [5-mer T5]
[4]
  fold reduction in affinity (fold lower affinity than 71F12): 50
